This is an account of results in the DeepSol protein solubility set.

The data set is described as follows: soluble on expression in E. coli; label from the status in PepcDB or PDB records.
For the sequence “MSLSAAEAGPLQGGLHVLIVDDNDINLKVLSTFMSKIGCSYDTASNGLVAVEKYRQTQQKFDYVLMDISMPIMDGITASRTIREYEDESLLERCTIMAVTGVASSDMQQQAFAAGMDDYLVKPLSLHDLKRILGVNEGHHHHHH”, the “soluble on expression in E. coli” value is reported as “not soluble”.
Consider “MPSERRPFQTAFLSNRKTVGKLAERVQSRYDGLHKFKHICSAAMALIKEPLDKVKQRNEELEAAEEAAAQEALGREQEAARVSEWEERYKLSRSEFEQFWKGLPQTVQNKLQASQKTWKSGMDKICANNAKAEGKTPNGIKFSELACKTAKTEARLEELHNRKKALIDEMAREADKKELSKRL”, for which the “soluble on expression in E. coli” value is listed as “not soluble”.
With “MAHHHHHHMHMFTNDWKSILAPLKSCRIKQQFDDREFLADFAMGLKLDFNNKYLVLDASTELLKFTAIESSDCCNRNCLPKMCIPINMKILTYGRELSRPDIVVEKDCSCTMLCLNRPTIKMYDFSNNNNKELIGTIKAPFSCCSYKFDLYDSAMRKIIYMDDTCCQLSILFPCPCGPFKFSNFFLRDAKTHEKVAHLQKEVPFLKFVKRDIDNYTLNFEQVQNPEWKMMLLAFSLFMDYIYYDRK” the entry was “not soluble”.
With “MLRITELKLPIDHPEEDLRVALLQHLGIDSSELLDFTLFKRSYDARKKSSELCFIYTIDFQVKDEAALLRKLANDRHVGPAPDVSYKVVGHAPEGLSERPIVVGFGPCGIFAGLLLAQMGFKPIILERGTEVRQRTKDTWALWRKNVLNAESNVQFGEGGAGTFSDGKLYSQIKDPKFIGRKVLHEFVKAGAPEEILYVSKPHIGTFRLTGVVENMRHQIEALGGEVRFQQRVTDLMIEDGQLLGVQLDSGEQIESRHVILALGHSARDTFRMLHGRGVFMEAKPFSVGFRIEHPQSLIDRARLGKYAGHPKLGAADYKLVHHASNGRSVYSFCMCPGGTVVAATSEPGRVVTNGMSQYSRNERNANSGIVVGISPEQDFPGSPLAGIELQERLESHAYLLGGSNYEAPAQLVGDFIAGRASTALGSVEPSYKPGVKLVDLAEALPAFAIEAIREALPAFDKQIKGFSLHDAVLTGIETRTSAPLRITRGPTMQSLNTKGLYPAGEGAGYAGGILSAGVDGIRVAEALVRDMLGIEGLEHHHHHH” the entry was “soluble”.
With “MNVTYLHDEDLDFLQHCSEEQLADFARLLTHNEKGKARLSSVLSHNELFKAMEGHPEQHRRNWQLIAGEFQHYGGDSIANKLRGHGKQYRAILLDVAKRLKLKADKSMSTFEIEQQLLEHFLRHTWQKMDAAHKQEFLQAVDAKVSELEELLPLLMKDRSLAKGVSHLLSTQLTRILRTHAAMSILGHGLLRGAGLGGPVGAALNGVKAMSGSAYRVTIPAVLQIACLRRMMAAVQA” the entry was “not soluble”.
For “MEVTDVRLRRVNTEGRMRAIASITLDHEFVVHDIRVIDGNNGLFVAMPSKRTPDGEFRDIAHPINSGTRSKIQDAVLTEYHRLGELEEVEFEEAGAS”, the “soluble on expression in E. coli” value is recorded as “not soluble”.
With “MSGKTKRLMVMAGGTGGHVFPGLAVAHHLMAQGWQVRWLGTADRMEASLVPQHGIEIDFIKISGLRGKGLMAQLTAPIRIYRAVRQAQKIMRDYQPNVVLGMGGYVSGPGGLAAWLCGVPVVLHEQNGIAGLTNRWLARIAKKVLQAFPGAFPNADVVGNPVRTDVLALPLPAVRLSGREGPIRVLVIGGSQGARILNQTLPLVAASLGEQITLWHQVGKGALPEVSQAYQQAGQAGHLVVEFIDDMAAAYAWADVVVCRSGALTVSEVAAAGLPAIFVPFQHKDRQQYWNALPLEKAGAAKIIEQPQFTATSVSSLLASWDRATLLSMAERARSVAIPDATERVAAEVVAASKSA” the entry was “not soluble”; with “GKPIRSPGVLLDIDSRRTAEAERDRLNELLQIFTAAVPGVVYAKDLEGRMLVANRGTAELVGKPPEFFIGKTDLEFLDDEQQARVLMETDQRIMQSNVSEQIEEKVNLADGSAAIWLSTKAPLLDRN”, “not soluble”; with “MSLKKQLVKTDGHNQLDQPNTKALQLKKKQFNSGVRVTSEISFLREVIAHHPGIETERVIDNQTFGSAMYLERAQKEHQLFIKILRQHGTKVHYLQDLLLEALSAADPNVRQDFIKNFLLESGIKSVSTFEACLNFFRSLDSLVDVIKVMFGGIKVSDVPPITPQRFADIHVSNSPFLIKPLSFSLYPHKFFNTLGTGVALFVTNDSELKRHSLVYEYIMRFHPRFDGVKLYTNRDFKNCLINSSDIIQISNEILLIGISHDTDVLGIESLARNLLSDHTNPIKQIIAINIHKFGAKTNLNKLIAMVDVDKFIIARKVLQATEIFELTATAQRDVDGLAQIKFKPLKFNFGEIIEAIIDKQPRFVIIGGGDEVAERKELLDCGMGVLNLSPGEIVVFDRNHYTNNLLNELGLIIHKIPASELSRGPSGPLEMVCSLWREEGHHHHHH”, “soluble”.
The result for “GSHMMKVEKEIKTNQDIDVVMTIFSDPAFTIPQIFPGIASIKCIEPEIFEAEGKFLAFSYKVKGRVYKGVDEVRIIYDSDRGNGILYIRKKDNNTLQIILEHDNKLTAFLGKPYVSSNLDRLAENIDEIIRLERIKRKI” reads “soluble”; that for “MASVPVYCLCRLPYDVTRFMIECDMCQDWFHGSCVGVEEEKAADIDLYHCPNCEVLHGPSIMKKRRGSSKGHDTHKGKPVKTGSPTFVRELRSRTFDSSDEVILKPTGNQLTVEFLEENSFSVPILVLKKDGLGMTLPSPSFTVRDVEHYVGSDKEIDVIDVTRQADCKMKLGDFVKYYYSGKREKVLNVISLEFSDTRLSNLVETPKIVRKLSWVENLWPEECVFERPNVQKYCLMSVRDSYTDFHIDFGGTSVWYHVLKGEKIFYLIRPTNANLTLFECWSSSSNQNEMFFGDQVDKCYKCSVKQGQTLFIPTGWIHAVLTPVDCLAFGGNFLHSLNIEMQLKAYEIEKRLSTADLFRFPNFETICWYVGKHILDIFRGLRENRRHPASYLVHGGKALNLAFRAWTRKEALPDHEDEIPETVRTVQLIKDLAREIRLVEDIFQQN”, “soluble”; that for “MGSDKIHHHHHHMGSSRKVIITCAVTGAIHTPSMSPYLPVTPDEVAQASIGAAEAGAAVIHLHARDPRDGRPTQDPAAFAEFLPRIKSNTDAVINLTTGGSPHMTVEERLRPATHYMPELASLNMGSMNFGLYPMLERFKEFAHGWEREHLERSRDLVFKNTFADIEFILKTCGGNGTRFEFECYDTSHLYNLAHFVDRKLATPPFFVQTVFGLLGGIGPHPEDLAHMRRTADRLFGADYVWSILGAGRHQIPLASIGAAQGANVRVGLEDSLWIAPGELAETNAAQVRKIRQVIEGLSLEVASPAEARTMLGLKGPQNVNF”, “not soluble”.
As to “MKRQKRDRLERAQSQGYKAGLNGRSSEHCPYQSMDARSCWLGGWRDARDDKQSGLFKLEHHHHHH”, the “soluble on expression in E. coli” value is listed as “not soluble”.
The result for “MADKRIRSDSSAAAVQAMKNAAVDTIDPPSHAGLEKKAEPFWHDNIRSKALDSWTPADLLAAVELANNQLYITVLRKDLRKEERIRGEERDEGLIKDLRKQIVELQRTILAQRRDLQIHSHATNGESRDQKKRNQNDRDARNTKNEHQDQDDNLIAFPKHG” reads “not soluble”; that for “MGSDKIHHHHHHMDMLSFELIRDGNRPLYEQLYQQIRQEIIEGRLAYGTKLPSKRKLGQFLNLSQTTIELAYQQLVAEGYVESVSRKGYFVLAYEELAYVKTTPLPTSQRSNQQPAMRYDFHPSKIDGSSFPFSRWRKHAKDVIDEQHQSLVSLGHPQGDLSLRLEIATYLYHSRGVVCSPEQIIIGSGVEQLLPHIVFLLGKTTTYGIEDPGYHATRLILKSHERSAVPIPVDQNGLVIPSLVQSPVDVMYVTPAHQFPSGSILSVNRRRQLLNWAAASDRRYIIEDDYDSEFRYSGKSIPSLHSMDSERVIYLSTFSKSLMPSLRIGYMVLPRPLLERYQTEFPYYTCSVSRFDQTILTRFMKEGDFEKHLNRMRKIYRRKLDVVVHALRDVPFLKLTGESAGLHVVLSVSNGMGEQELLRRAKDSSIQVYGLSDYAQLPLSTAYPQIVLGFASLTEQQLMQGLTELVTAWQLK”, “not soluble”; that for “MEAWIAEAKALLAALVAVPSVSAEGRALREGAEKVAEVLEGLGLRAELHEGYGPPVVFAEGGEGERTLLFYNHYDVQPPDPLELWDTDPFVLAEREGAWYARGAHDYKGELVVRVVALRRFQEKHGFLPRVKFVVEGEEEVGSPHLEAYVADKRDLLKAEAILWEAGGVDAKGRPYLYAGLKGIVALELRVRTAAFDLHSSYGAVVENPIYRLSRALASLRDEEGRVLIPGFYAKVRPLTPLEMEVLAQIPDESEALREAFGVRDFLGGARNLDFNQRLYAEPCVNFNGFHAGYGGPGSKTVLPAEARAKLDFRLVPDQDPEEVPELLRRHLEAQGFHDVEVVVLEKGERPARSDLAHPFVALARRALEEAFGERPVLYPNMAGSGPMHPFLHHLKAPAVGLGVGYPGSRVHSPNEHIRVRDFERGVQALLRLLELFFLGR”, “soluble”.
With “MAARHAVRGGTVYGGGNGYRVNLVGRGTGGSTMVHHQPLNRISSQRSVAPVGRVLNRGALRNGAQQPLHVSTSSPAFHYMEEQPSPTTNGMVIQAKTPGAGVIQARHMQSQQSFPSGGPARVLMNRSSTNAGLSRMVGGGYDQQLPTAPNGRLMIPSTAVRVPGSGMASPRLQTTPQPLTKSQKAKDEMKMAYQVGREEALQQRRNDLEDDEENLGYAETYSEYTPAKLRSGMAHPDSVVESASLSSVSPPDVKYQISIPEYLIDMGHISALQLEAVIYACQMHERRMPSGERYGYLIGDGAGVGKGRTVACIIFENYLQGRKRAIWLSVSSDLKFDAERDLRDCGAPNIPVYALNKMKYAKISGKENGSIKKGVMFATYTSLIGECRGAKSRKYRSRISQLIQWFGQDYDGVIILDECHRAKNLVPTAGAKPTKTGRMVLELQKALPNARVVYASATGATEPRNMAYMTRLGLWGERQAFPEFHDFISAVERRGVGAMEIVAMDMKQRGLYLARQLSFRGVSFAVQEVQLSSEFVKMYDAAVKLWMEARRQFQTVIETMDEEERSTCKTVWGQFWACHQRFFKYLCIAAKVDTCVQLSREAIKAKKCVVIGLQSTGESATLETLEEMGGELNEFVSTAKTVLYGLIDKHFPTDASFSMGDRDIFKDFDDFERPAKRRKTRETLSFLGDVGFDTWTGVTTGMGGRVGDGVTKNITRGLSGIGRSSMSSSTGNTNNEDANSTTSESSDGSDDEVENDMISENGGESGDLESAREEAEGARTLEDGEQDEWVKALLAEAESSSDDSDEEVVKDEDEDEEAESKSGETHEQEEEFNPFMCDFTNDDPWAHNQQIVEDTPQKDRKAKKRKRDEEEAERLREKVRKREERREKKRRRAIRRAEREKQRRNEELQARGSATDFITSSRICGNGSGEQDDINPMLIKTELLAAVERLAPSLPANTLDQLIDEMGGPEYVAEMTGRRGHMVTSETGDVMYQRRNANAEVSLELINMEEKEKFMRGEKLIAIISEAASSGISLQSDRRAINKRRRVHITLELPWSADKAIQQFGRTHRSNQVSGPEYVFLISELAGEKRFASIVAKRLESLGALTHGDRRATETRDLSQFNMDNKYGRVALDTLLKTVIGQAGTPLIDPPKDYKAGEFFEDMRLYMEGVGLLAKNKTGQYTIEKEAATIPKFLNRILGLPVHAQNSLFHYFSEIVAELIAQSKHDGTYDTGIMDLGTGDDQVRKLETRVFTGRVDNGSFRVEIHKIGVERGVSWEEAMELHKEHSNDDDGFYICHPGGANTANTKKVAALVYGIGKIRMDNGARLYAITRPSTGRSPKLMTMADLSKRFHKVSIDEAKEVWKQQYDSAANMCQHNYVYGKCRTESNGTYCEVGRRTRTYFVLSGSVLSVWPIVEEVLAGSDRKSSRMQVIRVRTEQDQKIVGKLVVFFGK” the entry was “not soluble”.
